Columns and labels:
[1] = target: T1, Recombinant Human DLL4 (R&D Systems Cat#1506-D4/CF) (human, UniProt Q9NR61 27-524); assay: MSD Multispot ECL, antigen spotted on plate, Fab at 3.8 nM; blank spot 198
T1 construct: Bought recombinant protein; also called rHuman DLL4; delta-like protein 4

[2] = target: T2, rHuman Notch-1/Fc Chimera, CF (R&D Systems Cat#3647-TK) (human, UniProt P46531 19-526); assay: as above
T2 construct: Bought Fc chimera; Fc part of the bought chimera not given

[3] = target: T3, rHuman CD44/Fc Chimera, CF (R&D Systems Cat#3660-CD) (human, UniProt P16070 21-220); assay: as above
T3 construct: Bought Fc chimera; Fc part of the bought chimera not given

[4] = target: T4, rHuman P-Cadherin/Fc Chimera, CF (R&D Systems Cat#861-PC) (human, UniProt P22223 108-654); assay: as above
T4 construct: Bought Fc chimera; Fc part of the bought chimera not given

[5] = target: T5, rHuman Erythropoietin R/Fc Chimera, CF (R&D Systems Cat#963-ER) (human, UniProt P19235 25-250); assay: as above
T5 construct: Bought Fc chimera; also called EPO R/Fc; Epo R; Fc part of the bought chimera not given
T5 sequence (looked up): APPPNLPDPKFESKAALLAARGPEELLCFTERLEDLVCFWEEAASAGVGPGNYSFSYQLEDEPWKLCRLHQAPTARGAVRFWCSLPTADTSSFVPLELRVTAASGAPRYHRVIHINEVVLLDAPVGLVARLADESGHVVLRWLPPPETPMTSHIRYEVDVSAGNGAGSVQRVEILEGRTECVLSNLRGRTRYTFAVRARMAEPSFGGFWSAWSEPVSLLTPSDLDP

[6] = target: T6, rHuman Erythropoietin R/Fc Chimera, CF (R&D Systems Cat#963-ER) (human, UniProt P19235 25-250); assay: Multispot ECL (MSD) titration; antigen spotted on plate; Fab 24.5 nM; blank spot 149
T6 construct: Bought Fc chimera; also called EPO R/Fc; EPO R; Fc part of the bought chimera not given
T6 sequence (looked up): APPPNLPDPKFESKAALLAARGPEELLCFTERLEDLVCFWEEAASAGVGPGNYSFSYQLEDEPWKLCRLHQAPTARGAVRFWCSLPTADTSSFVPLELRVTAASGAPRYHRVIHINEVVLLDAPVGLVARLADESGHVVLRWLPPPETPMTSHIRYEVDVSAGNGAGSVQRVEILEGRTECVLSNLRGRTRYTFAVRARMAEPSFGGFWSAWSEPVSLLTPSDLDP

[7] = target: T7, Recombinant Human DLL4 (R&D Systems Cat#1506-D4/CF) (human, UniProt Q9NR61 27-524); assay: as above
T7 construct: Bought recombinant protein; also called delta-like protein 4; rHuman DLL4

[8] = target: T8, rHuman ErbB2/Fc Chimera, CF (R&D Systems Cat#1129-ER) (human, UniProt P04626 23-652); assay: as above
T8 construct: Bought Fc chimera; also called human epidermal growth factor 2 receptor; Fc part of the bought chimera not given

[9] = target: T9, rHuman HGF R/c-MET/Fc Chimera, CF (R&D Systems Cat#358-MT/CF) (human, UniProt P08581 25-932); assay: as above
T9 construct: Bought Fc chimera; also called HGF R/Fc; hepatocyte growth factor receptor; Fc part of the bought chimera not given

[10] = target: T10, rHuman Notch-1/Fc Chimera, CF (R&D Systems Cat#3647-TK) (human, UniProt P46531 19-526); assay: as above
T10 construct: Bought Fc chimera; Fc part of the bought chimera not given

[11] = target: T11, rHuman CD44/Fc Chimera, CF (R&D Systems Cat#3660-CD) (human, UniProt P16070 21-220); assay: as above
T11 construct: Bought Fc chimera; Fc part of the bought chimera not given

[12] = target: T12, rHuman IGF-1 sR (IGF-1 sR), CF (R&D Systems Cat#391-GR) (human, UniProt P08069 31-932); assay: as above
T12 construct: Bought soluble receptor; also called insulin-like growth factor-1 soluble receptor

[13] = target: T13, rHuman P-Cadherin/Fc Chimera, CF (R&D Systems Cat#861-PC) (human, UniProt P22223 108-654); assay: as above
T13 construct: Bought Fc chimera; Fc part of the bought chimera not given

[14] = target: T6, rHuman Erythropoietin R/Fc Chimera, CF …; assay: Multispot ECL (MSD) titration; antigen spotted on plate; Fab 98.1 nM; blank spot 210
[15] = target: T8, rHuman ErbB2/Fc Chimera, CF (R&D …); assay: as above
[16] = target: T10, rHuman Notch-1/Fc Chimera, CF (R&D …); assay: as above
[17] = target: T11, rHuman CD44/Fc Chimera, CF (R&D Systems …); assay: as above
[18] = target: T12, rHuman IGF-1 sR (IGF-1 sR), CF (R&D …); assay: as above
[19] = target: T13, rHuman P-Cadherin/Fc Chimera, CF (R&D …); assay: as above

T9 sequence (P08581 25-932, change not shown): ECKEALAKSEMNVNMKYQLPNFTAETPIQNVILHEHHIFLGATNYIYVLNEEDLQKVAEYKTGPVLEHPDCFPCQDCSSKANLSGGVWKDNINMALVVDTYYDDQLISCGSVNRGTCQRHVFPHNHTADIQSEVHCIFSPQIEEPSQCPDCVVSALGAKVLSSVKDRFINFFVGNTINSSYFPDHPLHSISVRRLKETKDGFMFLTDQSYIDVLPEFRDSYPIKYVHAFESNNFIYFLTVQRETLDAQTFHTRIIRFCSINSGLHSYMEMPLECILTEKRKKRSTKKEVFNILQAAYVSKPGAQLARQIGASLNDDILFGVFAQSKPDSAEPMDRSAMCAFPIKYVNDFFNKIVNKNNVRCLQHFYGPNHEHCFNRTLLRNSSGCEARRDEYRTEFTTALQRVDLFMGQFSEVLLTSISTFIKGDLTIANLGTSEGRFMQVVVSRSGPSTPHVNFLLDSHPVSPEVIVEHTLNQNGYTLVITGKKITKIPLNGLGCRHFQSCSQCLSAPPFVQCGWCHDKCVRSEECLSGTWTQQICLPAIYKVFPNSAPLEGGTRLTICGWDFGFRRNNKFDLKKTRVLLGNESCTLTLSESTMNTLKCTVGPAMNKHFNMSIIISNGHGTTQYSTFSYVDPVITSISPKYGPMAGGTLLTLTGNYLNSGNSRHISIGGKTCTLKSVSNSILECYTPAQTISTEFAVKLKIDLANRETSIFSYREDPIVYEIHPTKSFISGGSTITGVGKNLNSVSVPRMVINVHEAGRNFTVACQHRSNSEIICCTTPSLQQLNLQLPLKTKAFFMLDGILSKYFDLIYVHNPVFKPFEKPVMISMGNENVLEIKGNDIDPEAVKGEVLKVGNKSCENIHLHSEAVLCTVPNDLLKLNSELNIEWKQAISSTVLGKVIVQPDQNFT

B1: Fab VH6-1_IGHD3-3*01_IGHJ4*01 & V4-3_IGLJ4*01 (Fab, V domains shown)
VH: QVQLQQSGPGLVKPSQTLSLTCAISGDSVSSNSAAWNWIRQSPSRGLEWLGRTYYRSKWYNDYAVSVKSRITINPDTSKNQFSLQLNSVTPEDTAVYYCAREYYDFWSGYYTDYFDYWGQGTLVTVSS
VL: QPVLTQPTSLSASPGASARLTCTLRSGINLGSYRIFWYQQKPESPPRYLLSYYSDSSKHQGSGVPSRFSGSKDASSNAGILVISGLQSEDEADYYCMIWHSSASFVFGGGTQLIIL
notes: Tested as a purified germline Fab made in E. coli; The VH was cloned into plasmid A (CH1 constant region, His6 and Flag tags) and the lambda VL into plasmid E (lambda CL)
[1]
  ECL signal: 462
[2]
  ECL signal: 383
[3]
  ECL signal: 419
[4]
  ECL signal: 281
[5]
  ECL signal: 407

B2: Fab VH1-46_IGHD3-10*01_IGHJ4*01 & O1_IGKJ1*01 (Fab, V domains shown)
VH: QVQLVQSGAEVKKPGASVKVSCKASGYTFTSYYMHWVRQAPGQGLEWMGIINPSGGSTSYAQKFQGRVTMTRDTSTSTVYMELSSLRSEDTAVYYCAREYYYGSGSYYNDYFDYWGQGTLVTVSS
VL: DIVMTQTPLSLPVTPGEPASISCRSSQSLLDSDDGNTYLDWYLQKPGQSPQLLIYTLSYRASGVPDRFSGSGSGTDFTLKISRVEAEDVGVYYCMQRIEFPSWTFGQGTKVEIKR
notes: Germline library Fab expressed in E. coli; VH was cloned into Plasmid A (CH1 constant region, His6 and Flag tags); The kappa VL was cloned into Plasmid C (kappa CL)
[6]
  ECL signal: 4530
[7]
  ECL signal: 339
[8]
  ECL signal: 241
[9]
  ECL signal: 211
[10]
  ECL signal: 434
[11]
  ECL signal: 267
[12]
  ECL signal: 239
[13]
  ECL signal: 257
[14]
  ECL signal: 5630
[15]
  ECL signal: 247
[16]
  ECL signal: 313
[17]
  ECL signal: 265
[18]
  ECL signal: 309
[19]
  ECL signal: 347

Source: patent US20120316071A1 (published 2012)
